Test results as given in US20250049960, “Multicomponent systems for site-specific genome modifications” (The Regents of the University of California, published 2025).

Tests used:
Conditions in all cases: tags: N-terminal FLAG (GT linker), from HEK293T
BoMo R2 RT [1] = target: T1, BoMo R2 RT (Bombyx mori); experiment: pulldown; co-expressed in HEK293T, FLAG IP, cognate
T1 chain: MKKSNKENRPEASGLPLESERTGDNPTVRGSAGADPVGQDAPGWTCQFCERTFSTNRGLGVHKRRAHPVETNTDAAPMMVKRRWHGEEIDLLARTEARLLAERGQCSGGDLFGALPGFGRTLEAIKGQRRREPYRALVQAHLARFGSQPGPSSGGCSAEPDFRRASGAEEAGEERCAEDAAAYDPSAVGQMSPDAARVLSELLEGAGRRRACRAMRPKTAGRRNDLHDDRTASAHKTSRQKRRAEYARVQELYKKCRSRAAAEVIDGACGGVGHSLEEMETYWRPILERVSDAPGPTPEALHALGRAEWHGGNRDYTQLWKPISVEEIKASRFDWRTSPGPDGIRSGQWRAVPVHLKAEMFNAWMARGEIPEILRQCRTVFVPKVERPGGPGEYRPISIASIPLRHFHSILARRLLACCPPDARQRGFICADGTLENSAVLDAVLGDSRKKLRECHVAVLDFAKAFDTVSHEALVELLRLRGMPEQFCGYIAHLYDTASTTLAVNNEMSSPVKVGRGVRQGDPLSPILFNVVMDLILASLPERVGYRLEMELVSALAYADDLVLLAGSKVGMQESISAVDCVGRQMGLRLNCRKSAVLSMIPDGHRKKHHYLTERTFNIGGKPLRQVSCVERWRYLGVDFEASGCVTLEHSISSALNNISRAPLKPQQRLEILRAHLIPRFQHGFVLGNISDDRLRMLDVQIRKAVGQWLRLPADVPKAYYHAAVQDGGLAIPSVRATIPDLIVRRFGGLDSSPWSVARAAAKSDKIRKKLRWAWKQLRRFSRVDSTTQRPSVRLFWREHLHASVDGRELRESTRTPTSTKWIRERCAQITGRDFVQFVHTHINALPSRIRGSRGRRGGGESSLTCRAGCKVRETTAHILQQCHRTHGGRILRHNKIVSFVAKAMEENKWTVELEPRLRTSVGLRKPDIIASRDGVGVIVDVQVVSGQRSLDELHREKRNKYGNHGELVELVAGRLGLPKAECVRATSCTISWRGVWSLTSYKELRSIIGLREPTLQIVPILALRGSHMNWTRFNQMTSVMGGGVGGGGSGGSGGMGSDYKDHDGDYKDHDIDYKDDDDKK
Excerpt: (§1) 9 populations of HEK293T cells were transfected with different combinations of plasmids comprised of one of the pcDNA3.1 backbone plasmids expressing RT protein ORFs modified from B. mori (SEQ ID NO. 35, D. simulans (SEQ ID NO. 32), and O. latipes (SEQ ID NO. 8), and an additional plasmid expressing the 3′ UTR RNA from B. mori (SEQ ID 163), D. simulans (SEQ ID NO. 164), or O. latipes (SEQ ID NO. 154) R2 elements (see FIG. 11 A). Each RT protein was co-expressed with each 3′ UTR RNA.
(§2) After allowing sufficient time for the RT protein plasmids to be transcribed and translated and to associate with the transcribed 3′ UTR RNAs, cells were lysed and any RT protein+RNA template complexes were purified by FLAG immunopurification (Sigma FLAG antibody resin). RNA present in each input cell lysate and RNA associated with each immunopurified sample was purified. Equivalent aliquots of each input RNA sample and each RT-bound RNA sample were affixed to Hybond N+membrane (Cytiva) in a grid of spots. Membranes containing spots for each type of 3′ UTR RNA were probed together for the presence of the 3′ UTR RNA, as detected by hybridization to complementary oligonucleotide probes that were ³²P 5′-end-radiolabeled using T4 polynucleotide kinase (NEB). […]

BoMo R2 RT [2] = target: T1, BoMo R2 RT; experiment: pulldown; co-expressed in HEK293T, FLAG IP, non-cognate
Excerpt: as §1, §2

OrLa R2 RT = target: T2, OrLa R2 RT (Oryzias latipes); experiment: pulldown; co-expressed in HEK293T, FLAG IP, cognate; more selective
T2 chain: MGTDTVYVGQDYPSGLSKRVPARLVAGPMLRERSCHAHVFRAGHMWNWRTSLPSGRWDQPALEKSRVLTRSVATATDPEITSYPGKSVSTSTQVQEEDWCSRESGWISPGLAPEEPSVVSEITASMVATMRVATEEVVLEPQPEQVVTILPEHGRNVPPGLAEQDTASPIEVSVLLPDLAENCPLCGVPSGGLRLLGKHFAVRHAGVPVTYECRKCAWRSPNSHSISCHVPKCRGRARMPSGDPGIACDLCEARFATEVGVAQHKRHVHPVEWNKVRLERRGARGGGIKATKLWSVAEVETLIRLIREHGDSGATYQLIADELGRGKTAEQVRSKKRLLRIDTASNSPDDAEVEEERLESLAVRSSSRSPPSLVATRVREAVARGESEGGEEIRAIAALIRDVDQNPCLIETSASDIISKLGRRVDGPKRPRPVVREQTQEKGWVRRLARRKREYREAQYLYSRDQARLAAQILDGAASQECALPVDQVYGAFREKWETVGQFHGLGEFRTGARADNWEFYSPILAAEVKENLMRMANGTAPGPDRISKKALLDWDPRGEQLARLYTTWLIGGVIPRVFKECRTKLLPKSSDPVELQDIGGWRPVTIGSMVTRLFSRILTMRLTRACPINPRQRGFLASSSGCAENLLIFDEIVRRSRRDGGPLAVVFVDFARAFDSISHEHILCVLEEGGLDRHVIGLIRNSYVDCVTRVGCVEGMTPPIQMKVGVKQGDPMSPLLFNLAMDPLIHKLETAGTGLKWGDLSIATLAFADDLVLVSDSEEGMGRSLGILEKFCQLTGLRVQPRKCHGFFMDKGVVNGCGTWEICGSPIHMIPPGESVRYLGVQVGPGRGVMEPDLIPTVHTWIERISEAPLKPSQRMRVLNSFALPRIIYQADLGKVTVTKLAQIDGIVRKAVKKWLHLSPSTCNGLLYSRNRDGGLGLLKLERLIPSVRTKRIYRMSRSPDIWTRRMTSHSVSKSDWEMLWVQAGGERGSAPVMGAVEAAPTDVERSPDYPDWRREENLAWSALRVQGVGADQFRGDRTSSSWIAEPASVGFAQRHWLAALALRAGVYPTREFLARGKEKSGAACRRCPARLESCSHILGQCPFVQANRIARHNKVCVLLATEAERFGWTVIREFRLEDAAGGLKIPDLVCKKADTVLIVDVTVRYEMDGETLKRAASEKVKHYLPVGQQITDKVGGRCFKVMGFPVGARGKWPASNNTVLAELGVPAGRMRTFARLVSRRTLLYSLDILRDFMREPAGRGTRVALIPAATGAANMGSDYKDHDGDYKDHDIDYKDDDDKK
Excerpt: as §1, §2

B1: B. mori R2 3'UTR RNA (ssRNA)
RNA: UGAGCCUUGCACAGUAGUCCAGCGGUAAGGGUGUAGAUCAGGCCCGUCUGUUUCUCCCCCGGAGCUCGCUCCCUUGGCUUCCCUUAUAUAUUUUAACAUCAGAAACAGACAUUAAACAUCUACUGAUCCAAUUUCGCCGGCGUACGGCCACGAUCGGGAGGGUGGGAAUCUCGGGGGUCUUCCGAUCCUAAUCCAUGAUGAUUACGACCUGAGUCACUAAAGACGAUGGCAUGAUGAUCCGGCGAUGAAAA
- binding result (BoMo R2 RT [1]): binds

B2: D. simulans R2 3'UTR RNA (ssRNA)
RNA: UAGCUAAAACGUUUGGUUCAAAACAUUUGCUUGCUGUCUUGGCAUAACAUCAAUAAAGGCAUAAACAUCGCAAAAUAAUGGUUAUAUAUAAAUGGCUAUGAGGAUGGUUUUAGUACGUAGGCGUUGCGGAACUUCGGUUCAGAUAGAGCAAUGAAUCGUGCAUGCUAGGAAAACUGACCACACGCAGUGUUGGCAGCCCUAGUAUCUUUCGAUAGAUUUCCAUACCUCCGCGAUCAAAAAAAAAAAAAAAAAAAAAAA
- binding result (BoMo R2 RT [2]): binds

B3: O. latipes R2 3'UTR RNA (ssRNA)
RNA: UGAGGGGGACAGCUGGGAGUCUCGGCAUGAUUACAAAUCUUGCGCUGCACUCGGAUGUCGUCCCCGUGACGGACACAUUAAUCCGGAAAGCGAGUGGUGACUCGCCUCAAG
- binding result (OrLa R2 RT): binds
- binding result (BoMo R2 RT [2]): binds
